Here are results for 41 sequences from the nanobody polyreactivity screen of Harvey et al. (2022).

The nature of this data set: yeast display, Sf9 membrane polyspecificity reagent, FACS + sequencing; frameworks hold sequencing errors. In outline: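 A nanobody's polyreactivity label depends on the gate it was sorted from. Yeast display cells were stained with 10% biotinylated, detergent-solubilized Sf9 membrane reagent for 1 hour at 4 °C, enriched on streptavidin microbeads and sorted by FACS. The low and high (top ~1%) gates were set on anti-HA fluorescence for expression and streptavidin fluorescence for reagent binding.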
Take “QVQLVESGGGLVQAGGSLRLSCAASGNIFRRYAMGWYREAPGKERELVAAISRGGTRTYYADSVKGRFTISRDNAKNTVYLQMNSLKPEDTAVYYCNAEVNTNYRIADYDYWGQGTQVTVSS”: the “polyreactivity (PSR sort gate)” value is on record as “high polyreactivity”. Turning to “QVQLVESGGGLVQAGGSLRLSCSASGSIFNYYAMGWYRQPPGKERELVAAISYRTGSTYYADSVKGRFTISRDNSKNTVYLQMNSLKPEDTSVYYCAADTRYGYGYWGQGTQVTVSS”, the “polyreactivity (PSR sort gate)” value is on record as “high polyreactivity”. Next, “QVHLVESGGGLVQAGGSLRLSSAASGFTFPWYAMGWYRQAPGKERELVATITRGGSTYYADSVKGRFTISRDNAKNTVYLQMNSLKPEDTAVYYCAVTYWRYHSYSPYDYWGQGTQVTVSS”: “high polyreactivity”; “QVQLVESGGGLVQAGGSLRLSCAASGLNFVQYVMGWYRQATGKERELVAAITDDGNTYYADSVKGRFTISRDNAKNTVYLQMNSLKPEDTEVYYCNAVLRSYDFWPGYGYWGQGTQVTVSS”: “low polyreactivity”. As for “QVQLVESGGGLVQAGGSLRLICAASGSTFAQNTMGWYRQAPGKERELVATISDGGGSTYYADSVKGRFTISRDNAKNTVYLQMNSLKPEDTSVYYCNTDRFWPSDFWGQGTQVTVSS”, the “polyreactivity (PSR sort gate)” value is “low polyreactivity”. As for “QVQLVESGGGLVQAGGSLRLSCAASGLIFSDNAMGWYRQARGKEREFVASISDSGTTTYYADSVKGRFTISRDNAKNTVYLQMNSLKPEDTAVYDCNARPGQSGARFGYWGQGTQVTVSS”, the “polyreactivity (PSR sort gate)” value is reported as “high polyreactivity”. Under “QVQIVESRGGLVQAGGSLRLSCDASGRTILIYAMGWYRQAPRKERELVAAITSGGRTKYADSVKGRFTISRDNGKNTVFLQMNSQKPEDTAVYYCAAESNRLRYYYWGQGSQVTVSS” stands “high polyreactivity”. In the case of “QVQLVESGGVLVQAGGSLRLSCAASGSIFGVYTMGWYRQAPGKERELVAAISGSGGSTYYADSVKGRFTISRDNAMNTVYLQMNSLKPEDTAVYYCATRFPKIPPYDSWGQGTQVTVSS”, the “polyreactivity (PSR sort gate)” value is given as “low polyreactivity”. Next, “QVQLVESGGGLVQAGGSLRLSCAASGFSFRYYAMGWYRQAPGKERELVAAISSSGTRTYYADSVKGRFTISRDNATTTVYLQMNSLKPEDTAVYYCNAGSPTSTVDYWGQGTQVTVSS”: “high polyreactivity”.

For “QVQLVESGGGLVQAGGSLRISCAASGRTFGIYAMGWYIKGPGKERELVADITIGGSTFYADSVKGRFTISRDNAKNTVYLPMNSLKPEDTAVYYCYDDVVVQYYFTYYRFFTYDYWGQGTQVTVSS”, the “polyreactivity (PSR sort gate)” value is “low polyreactivity”. As for “QVQLVESGGGLVQAGGSLRLSCAASGSTFQSYTMGWYRQAPGKERELVAGISRSGGSTYYADSVKGRFTISRDNAKNTVYLQMNSLKPEDTAVYYCAAAFYGRWGGFDYWGQGTQVTVSS”, the “polyreactivity (PSR sort gate)” value was “high polyreactivity”. Next, “QVQLVESGGGLVQAGGSLRLSCAASGYTFLHYAMGWYRQAPGKERELVAAISGSGGRTYYADSVKGRFTISRDNAKNTVYLQMNSLKPEDTAVYYCAAPYSSRNYYYWGQGTQVTVSS”: “high polyreactivity”; “QVQLVESGGGLVQAGGSLRLSCAASGIIFFIYAMGWYRQAPGKERELVARISIGGSTYYADSVKGRFTISRDNAKNTVYLQMNSLKPEDTAVYYCAARCGGLRATYHYWGQGTQVTVSS”: “low polyreactivity”. As for “QVQLVESGGGLVQAGGSLRLSCAASGRIIGYYAMGWYRQAPGKERELVAGIDWSGGNTYYADSVKGRFTISRDNAKNTVYLQMNSLKPEDTAVYYCNTEGGRDTAWYDYWGQGTQVTVSS”, the “polyreactivity (PSR sort gate)” value was “low polyreactivity”. For the sequence “QVQLVESGGGLVQAGGSLRLSCAASGITFGFYTMGWYRQAPGKERELVAAITSGGSTSYADSVKGRFTISRDNAKNTVYLQMNSLKPEDTAVYYCAADYLNPFPPYQYWKQSYDYWGQGTQVTVSS”, the “polyreactivity (PSR sort gate)” value is listed as “low polyreactivity”. As to “QDQHVESGGGLVQAGGSLRLSCAASGIIFWWYDMGWFRQAPGKERELVAAISTGSRTNYADSVKGRFTISRDNAKNTVYLQMNSLKPEDTAVYYCAGEWVGFSGYYGSGYEMDYWGQGTQVTVSS”, the “polyreactivity (PSR sort gate)” value is reported as “low polyreactivity”. Consider “QVQLVESGGGLVQAGGSLRLSCAASGFTFQNNVMGWYRQAPGKERELVAAINSSGRTYYADSVKGRFTISRDNAKNTVYLQMNSLKPEDTAVFYCAASRRYRGVNRPGDYWGQGTQVTVSS”, for which the “polyreactivity (PSR sort gate)” value was “high polyreactivity”.

“QVQLVESGGGLVQAGGSLRLSCAASGRIFIYNAMGWYRQAPGKERELVAAINRSGVSTHYADSVKGRFTISRDHAKNTVYLQMNSLKPEDTAVYYCARTVYGARSYDYWGQGTQVTVSS”: the “polyreactivity (PSR sort gate)” value is given as “low polyreactivity”. Under “QVQLVESGGGLVQAGGSLRLSCAASGRTFSRYAMGWYRQAPGKERELVATINTRAGITNYPDSVKGRFTISRDNAKNTVYLQMNSLKPEDTAVYYCNRGRPGGPSWYHYVYWGQGTQVTVSS” stands “high polyreactivity”; under “QVQLVESGGGLVQAGGSLRLSCAASGSIFSKYAMGWYRQAPGKERELVAAITSSGGSTYYADSVKGRFTISRDNAKNTVYLQMNSLKPEDNAVYYCAAGGRSVRYNYWGQGTQVTVSS”, “high polyreactivity”; under “QVQLVESGGGLVQAGGSLRLSSAASGSILYYNAMGWYRQAPGKERELVAAITSYGGDTYYADSVKGRFTISRDNAKNTVYLQMNSLKPEDSAVYYCAASSHFRPWAYYDDDYDHWGQGTQVTVSS”, “low polyreactivity”. Consider “QVQLVESGGGLVQAGGSLRLSCAASGRTFRRYAMGWYRQAPGKERELVAAISGDGSTHYADSVKGRFTISRDNAKNTVYLQMNSLKPEDTAVYYCAADYTDWYYVNYPAAPYRYDYWGQGTQVTVSS”, for which the “polyreactivity (PSR sort gate)” value is “high polyreactivity”. Take “QVQLVESGGGLVQAGGSLRLSCAASGFIFSIYALGWYRQAPGKERELVAAISKSGGRTYYADSVKGRFTISRDNAKNTVYLQMNSLKPEDTAVYYCAVDSYYKYDYWGQGTQVTVSS”: the “polyreactivity (PSR sort gate)” value was “high polyreactivity”. Regarding “QVQIVESGGGLVQAGGSLRLSCAASGRIFSQNTMGWYRQAPGKERELVAVISWRGGRTSYADSVKGRFTISRDNAQNTVYLQMNSLKPEDTAVYYCNAKRYAGSNYDYWGQGTQVTVSS”, the “polyreactivity (PSR sort gate)” value is listed as “high polyreactivity”. For “QVQLEESGAGLVQAGGSLRLTCAASGSTFYSNVMGWYRQAPGKEREFVAGISGSGGSTYYADSVKGRFTISRDNGNISVYLLINSLKPEDPAVYYCKAVRYPRLLYYWGQGTQVNVSS”, the “polyreactivity (PSR sort gate)” value is listed as “high polyreactivity”.

Turning to “QVQLVESGGGLVQAGGSLRLSCAASGLTFRVYAMGWYRQEPGKERELVASISRTGSTTYADSVKGRFTISRDNAKNTVYLQMNSLKPEDTAVYYCNARYYVLLWDSLAREYWGQGTQVTVSS”, the “polyreactivity (PSR sort gate)” value was “high polyreactivity”. Next, “HVQLVESGGGLVQAGGSLRLSCAASGRTFARYAMGWYRQAPGKERELVAAITRGGRTNYADSVKGRFTSSRDNAKNTVYLQMNSLKPEDTAVYYCNAYFVNPYDYWGQGTQVTVSS”: “high polyreactivity”. Under “QDQLVESGGGLVQAGGSLRLSCAASGITVDGYAMGWYRQAPGKDRELVAAITTSGGRTYYADSVKGRFTISRDNAKNTVYLQMNSLKPEHTADYYCNAVRGGRYGLDYWGQGTQVTVSS” stands “high polyreactivity”; under “QVQLVESGGGLVQAGGSLRLSCAASGSIFRGNAMGWYRQAPGKERELVARITWSGGRTYYADSVKGRFTISRDNAKNTVYLQLNSLKPEDTAVYYCAAQYYLYRRGYMWKYDYWGQGTQVTVSS”, “high polyreactivity”.

Consider “QVQLVESGGGLVQAGGSLRLICAASGSTFNYNAMGSSRQAPGKERELVAAISQTTSRTYYADSVKGRFTISRDNAKNTVYLQMNSLKPEDTAVYYCATKRWTRDRQRPRTQYYLFYYWGQGTQVTVSS”, for which the “polyreactivity (PSR sort gate)” value is “high polyreactivity”.

As for “QVQLVESGGGLVQAGGSLRLSCAASGFNFTRYAMGWYRQAPGKERELVAAISSGSRTYYADSVKGRFTISRDNAKNTVYLQMISLKPEDTAVYYCAAPVYTYYGHYDSWGQGTQVTVSS”, the “polyreactivity (PSR sort gate)” value was “high polyreactivity”. Next, “QVQLVESGGGLVQAGGSLRLSCAASGGTFSYYAMGWYRQAPGKERELVASISTDGGSTYYADSVKGRFTISRDNAKNTVYLQMNSLKPEDTAVYYCNARPRGYSDRYGYWGQGTQVTVSS”: “high polyreactivity”; “QVQLVESGGGLVQAGGSLRLSCAASGRIFERYAMGWYRQAPGKERELVAAISGGGSTYYADSVKGRFTISRDNAKNTVYLQMNSLTPEDTAFYYCNTRGNSRMDYWGQGTQVTVSS”: “high polyreactivity”; “QVQLVESGGGLVQAGGSHRLSCAASGSIFFSNARGWYRQAPGNERELFAAITWTGGSTYYADSVKGRFTISRDNAKNTVYLQMNSLKPEDTAVYYCNAAHQRDWYYAIYHLYYSPYYYWGQGSQVTVSS”: “low polyreactivity”. Consider “QVQLQESAGGLVQAGGSLRRSCAASGSIFSNCAMGWYRQTPGKERELVASITAGGNNNYADSVKGRFTISRDNAKNTVYLPMNSLKPEETAVYYCNRRYPGPDSFEHYYYYRYDYWGQGTQVTVSS”, for which the “polyreactivity (PSR sort gate)” value is listed as “low polyreactivity”.

For “QVQLVESGGGLVQAGGSLRLSCAASGSIFLYYTMGWYRQAPGKERELVAAITWGGGTTYYADSVKGRFTISRDNAKNTVYLQMNSLKPEDTAVYYCAAEGSYPRMDYWGQGTQVTVSS”, the “polyreactivity (PSR sort gate)” value was “low polyreactivity”. Under “QVQLVESGGGIFQAGGSLRLSCSASGFTLQGYAMVWSRQAPGKERELVAAISWSGGSTYYADSVKGRFTISRDNAKNTVYLQMNSLKPEDTAVYYCAAETYFAEYWGQGTQVTVSS” stands “high polyreactivity”; under “QVQLVESGGGLVQAGGSLRLSCAASGSIFGINVMGWYRQAPGKERELVAAITSGTSTYYADSVKGRFTISRDNANNTVYLQMNSLKPEDTAVYYCAALWSSRYVVHPQWYDYWGQGTQVTVSS”, “low polyreactivity”; under “QVQLVESGGGLVQAGGSLRISCAASGITLYDNVMGWYRQAPGKERELVAAISSSGTTKYYADSVKGRFTMSRDHANNTVYLQMNSLKPEDTAGSYCAADGITWYAIAYYYWGQGTQVTVSS”, “high polyreactivity”.

Take “QVQLVESGGGLVQAGGSLRLSCAASGFIFYHYAMGWYRQAPGKARELVAAISGRGGSTYYADSVKGRFTISRDNAKNTVYLQMNSLKPEDTAVYYCATDRQRADYYWGQGTQVTVSS”: the “polyreactivity (PSR sort gate)” value is “high polyreactivity”. Next, “QVQLVESGGGLVQAGGSLRLSCAASGNIFDGYAMGWYRQAPGKERELVAAISLSGGSTNYADSVKGRFTISRDNAKNTVYLQMNSLKPEDTAVYYCNARNWYYEGDYWGQGTQVTVSS”: “high polyreactivity”.
